Assay results: patent US20050181450A1, “Novel inositol 1,4,5-trisphosphate (IP3) receptor-binding protein and an IP3 indicator” (priority 2002, published 2005)

Experiments:
Assay type in all cases: binding
[1] = molecular target: T1, GST-EL (mouse IP3R1 amino acids 1-2217) (Mus musculus, UniProt P11881, N1264K); test: GST pulldown with GST-EL
T1 construct: construct a GST-IP3R1 (1-2217) vector (termed GST-EL); made in house; host or cells: Sf9 cells (baculovirus)
Method: Mouse cerebellar cytosolic fraction was diluted 2-fold with 10 mM Hepes (pH 7.4), 200 mM NaCl, 2 mM EDTA, 1 mM 2-ME and 0.02% Triton X-100. The high salt extract was diluted 5-fold with 10 mM Hepes (pH 7.4), 2 mM EDTA, 1 mM 2-ME and 0.01% Triton X-100. The diluted fractions (the final NaCl concentration of both fractions was 100 mM) were incubated with 20 μg of GST-EL or GST for 2 hours at 4° C. After adding 10 μl of glutathione-Sepharose and another 2 hours of incubation, the resins were washed 5 times with a wash buffer (10 mM Hepes (pH 7.4), 100 mM NaCl, 2 mM EDTA, 1 mM 2-ME, and 0.01% Triton X-100), and bound proteins were eluted with 20 mM glutathione.
The eluted proteins were analyzed by Western blotting with anti-IRBIT antibody. For dephosphorylation, the diluted high salt extract was incubated in the presence of or the absence of Escherichia coli alkaline phosphatase (Toyobo) with 2 mM MgCl2 for 30 minutes at 37° C. 5 mM EDTA was added, and then the resultant was subjected to pulldown assay as described above.
For the determination of the IP3R1-interacting region of IRBIT, Cos-7 cells expressing GFP-tagged full-length IRBIT or its truncated mutants were lysed in a lysis buffer (10 mM Hepes (pH7.4), 100 mM NaCl, 2 mM EDTA, 1 mM 2-ME, 0.5% Nonidet P-40, and protease inhibitor) for 30 minutes at 4° C., followed by centrifugation (100,000×g, 30 minutes). The supernatants were subjected to pulldown assay with GST-EL or GST as described above, and bound proteins were subjected to immunoblot analysis with anti-GFP antibody (Medical & Biological Laboratories).

[2] = molecular target: T2, type II phosphatidylinositol phosphate kinase β (Homo sapiens, UniProt P78356); test: Co-immunoprecipitation in Cos-7 cells with Myc-PIPKII β; details: overexpressing Cos-7 cells
T2 construct: expressed in transfected cells; host or cells: Cos-7
T2 sequence (P78356 1-416): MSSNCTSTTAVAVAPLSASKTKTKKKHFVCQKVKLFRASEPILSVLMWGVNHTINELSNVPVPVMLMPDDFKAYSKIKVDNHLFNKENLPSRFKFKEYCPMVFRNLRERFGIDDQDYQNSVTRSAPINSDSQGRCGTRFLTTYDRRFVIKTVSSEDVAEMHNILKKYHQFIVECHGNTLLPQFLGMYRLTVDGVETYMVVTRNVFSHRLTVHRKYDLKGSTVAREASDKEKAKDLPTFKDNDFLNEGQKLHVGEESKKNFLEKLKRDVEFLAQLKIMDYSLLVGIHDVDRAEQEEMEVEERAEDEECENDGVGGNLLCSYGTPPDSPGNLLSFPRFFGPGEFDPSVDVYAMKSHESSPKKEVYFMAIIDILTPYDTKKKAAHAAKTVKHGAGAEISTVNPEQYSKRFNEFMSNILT
Method: (§1) (A and B) IRBIT was transfected into Cos-7 cells with Myc-tagged type II phosphatidylinositol phosphate kinase α, β or γ (PIPKII α, β or γ). After two days, cells were lysed in lysis buffer, followed by centrifugation (100,000×g, 30 min). The supernatants were incubated with 3 μg of anti-IRBIT antibody, rabbit IgG, mouse anti-Myc antibody, or mouse IgG for 1 h at 4° C. After adding 5 μl of Protein G beads and another 1-h incubation, the beads were washed five times with lysis buffer and analyzed by Western blotting with anti-IRBIT antibody or HRP conjugated anti-Myc antibody. Immunoprecipitation of Myc-PIPKII α, β or γ with anti-Myc antibody co-precipitated IRBIT (A). In the reciprocal experiments, immunoprecipitation of IRBIT with anti-IRBIT antibody precipitated Myc-PIPKII α, β or γ.
as §1, with “IRBIT” for “(A and B) IRBIT”, “antibody.” for “antibody. Immunoprecipitation of Myc-PIPKII α, β or γ with anti-Myc antibody co-precipitated IRBIT (A). In the reciprocal experiments, immunoprecipitation of IRBIT with anti-IRBIT antibody precipitated Myc-PIPKII α, β or γ.”

[3] = molecular target: T3, type II phosphatidylinositol phosphate kinase γ (Homo sapiens, UniProt Q8TBX8); test: Co-immunoprecipitation in Cos-7 cells with Myc-PIPKII γ; details: overexpressing Cos-7 cells
T3 construct: expressed in transfected cells; host or cells: Cos-7
T3 sequence (Q8TBX8 1-421): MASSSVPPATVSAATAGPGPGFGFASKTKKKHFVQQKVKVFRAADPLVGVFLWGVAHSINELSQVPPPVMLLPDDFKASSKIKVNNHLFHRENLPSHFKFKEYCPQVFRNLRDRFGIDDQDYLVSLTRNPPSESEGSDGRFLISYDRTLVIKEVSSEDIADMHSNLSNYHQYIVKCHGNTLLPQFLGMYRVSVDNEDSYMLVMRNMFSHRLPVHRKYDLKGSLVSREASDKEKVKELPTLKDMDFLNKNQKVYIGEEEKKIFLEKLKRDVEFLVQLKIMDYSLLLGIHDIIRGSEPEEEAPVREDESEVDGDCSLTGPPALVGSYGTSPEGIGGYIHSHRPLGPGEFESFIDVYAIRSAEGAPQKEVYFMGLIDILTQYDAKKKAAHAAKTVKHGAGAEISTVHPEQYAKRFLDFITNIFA
Method: as §1
as §1, with “IRBIT” for “(A and B) IRBIT”, “antibody.” for “antibody. Immunoprecipitation of Myc-PIPKII α, β or γ with anti-Myc antibody co-precipitated IRBIT (A). In the reciprocal experiments, immunoprecipitation of IRBIT with anti-IRBIT antibody precipitated Myc-PIPKII α, β or γ.”

T1 sequence (P11881 1-2217 N1264K): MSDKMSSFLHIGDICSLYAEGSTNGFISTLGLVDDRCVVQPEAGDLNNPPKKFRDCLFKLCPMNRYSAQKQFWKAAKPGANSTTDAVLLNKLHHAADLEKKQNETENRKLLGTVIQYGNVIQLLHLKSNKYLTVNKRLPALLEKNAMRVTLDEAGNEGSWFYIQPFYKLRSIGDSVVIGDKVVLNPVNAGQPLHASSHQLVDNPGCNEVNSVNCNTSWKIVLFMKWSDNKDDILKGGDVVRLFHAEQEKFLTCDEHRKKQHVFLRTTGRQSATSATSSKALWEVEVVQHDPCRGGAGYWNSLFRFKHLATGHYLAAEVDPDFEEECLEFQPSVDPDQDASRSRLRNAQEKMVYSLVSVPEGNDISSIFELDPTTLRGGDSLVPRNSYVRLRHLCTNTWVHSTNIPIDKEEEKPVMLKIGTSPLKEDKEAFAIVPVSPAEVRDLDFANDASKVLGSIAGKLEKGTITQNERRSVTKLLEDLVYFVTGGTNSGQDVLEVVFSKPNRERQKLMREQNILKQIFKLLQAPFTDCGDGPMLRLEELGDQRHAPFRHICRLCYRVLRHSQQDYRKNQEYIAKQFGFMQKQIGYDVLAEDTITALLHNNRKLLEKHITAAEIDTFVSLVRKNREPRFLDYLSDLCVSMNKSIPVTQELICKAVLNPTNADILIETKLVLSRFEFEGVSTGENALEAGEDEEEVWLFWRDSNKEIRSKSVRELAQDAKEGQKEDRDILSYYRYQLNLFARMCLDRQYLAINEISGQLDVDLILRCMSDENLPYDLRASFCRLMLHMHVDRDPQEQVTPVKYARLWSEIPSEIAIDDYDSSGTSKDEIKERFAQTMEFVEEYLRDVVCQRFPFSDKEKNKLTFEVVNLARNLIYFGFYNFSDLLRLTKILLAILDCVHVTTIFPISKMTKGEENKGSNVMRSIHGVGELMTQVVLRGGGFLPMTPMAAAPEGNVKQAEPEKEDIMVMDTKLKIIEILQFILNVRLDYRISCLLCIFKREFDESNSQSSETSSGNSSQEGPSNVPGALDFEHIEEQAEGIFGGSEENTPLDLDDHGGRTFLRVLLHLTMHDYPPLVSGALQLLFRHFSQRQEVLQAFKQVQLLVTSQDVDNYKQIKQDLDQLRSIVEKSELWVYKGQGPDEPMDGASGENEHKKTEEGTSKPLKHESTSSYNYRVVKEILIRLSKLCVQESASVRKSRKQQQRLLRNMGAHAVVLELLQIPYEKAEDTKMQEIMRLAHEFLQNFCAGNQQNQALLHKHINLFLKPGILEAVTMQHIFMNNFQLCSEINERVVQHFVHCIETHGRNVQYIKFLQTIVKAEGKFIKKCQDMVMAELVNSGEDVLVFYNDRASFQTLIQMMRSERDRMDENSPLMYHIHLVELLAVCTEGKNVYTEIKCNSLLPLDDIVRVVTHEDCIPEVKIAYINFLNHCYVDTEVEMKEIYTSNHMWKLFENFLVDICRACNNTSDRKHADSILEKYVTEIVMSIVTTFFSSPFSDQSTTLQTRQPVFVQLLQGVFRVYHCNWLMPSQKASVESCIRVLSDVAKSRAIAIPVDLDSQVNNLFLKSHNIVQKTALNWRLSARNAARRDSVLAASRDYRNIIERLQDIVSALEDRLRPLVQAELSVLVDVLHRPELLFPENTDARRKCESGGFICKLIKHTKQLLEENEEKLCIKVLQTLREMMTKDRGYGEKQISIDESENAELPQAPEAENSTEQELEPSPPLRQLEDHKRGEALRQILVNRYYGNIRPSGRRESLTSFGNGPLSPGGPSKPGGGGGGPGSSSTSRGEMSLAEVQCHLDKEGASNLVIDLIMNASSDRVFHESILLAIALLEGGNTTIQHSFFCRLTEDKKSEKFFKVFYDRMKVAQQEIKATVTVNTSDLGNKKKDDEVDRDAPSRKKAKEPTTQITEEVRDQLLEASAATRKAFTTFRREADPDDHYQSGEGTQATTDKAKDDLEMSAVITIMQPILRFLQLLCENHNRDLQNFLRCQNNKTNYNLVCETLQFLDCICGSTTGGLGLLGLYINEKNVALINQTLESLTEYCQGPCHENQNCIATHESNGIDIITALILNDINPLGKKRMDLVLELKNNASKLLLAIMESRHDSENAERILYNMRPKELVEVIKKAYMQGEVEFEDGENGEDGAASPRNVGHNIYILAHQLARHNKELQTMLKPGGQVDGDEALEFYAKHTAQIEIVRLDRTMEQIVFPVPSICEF

B1: IRBIT: novel IP3 receptor-binding protein of 530 amino acids, SEQ ID NO: 1 (protein, listed as Mus musculus)
chain: MSMPDAMPLPGVGEELKQAKEIEDAEKYSFMATVTKAPKKQIQFADDMQEFTKFPTKTGRRSLSRSISQSSTDSYSSAASYTDSSDDEVSPREKQQTNSKGSSNFCVKNIKQAEFGRREIEIAEQDMSALISLRKRAQGEKPLAGAKIVGCTHITAQTAVLIETLCALGAQCRWSACNIYSTQNEVAAALAEAGVAVFAWKGESEDDFWWCIDRCVNMDGWQANMILDDGGDLTHWVYKKYPNVFKKIRGIVEESVTGVHRLYQLSKAGKLCVPAMNVNDSVTKQKFDNLYCCRESILDGLKRTTDVMFGGKQVVVCGYGEVGKGCCAALKALGAIVYITEIDPICALQACMDGFRVVKLNEVIRQVDVVITCTGNKNVVTREHLDRMKNSCIVCNMGHSNTEIDVTSLRTPELTWERVRSQVDHVIWPDGKRVVLLAEGRLLNLSCSTVPTFVLSITATTQALALIELYNAPEGRYKQDVYLLPKKMDEYVASLHLPSFDAHLTELTDDQAKYLGLNKNGPFKPNYYRY
interaction with GST-EL ([1]; IRBIT in high salt extract of mouse cerebellar crude microsome): interacted with GST-EL
interaction with GST-EL ([1]; IRBIT in mouse cerebellar cytosolic fraction): did not interact with GST-EL
interaction with GST-EL ([1]; high salt extract treated with alkaline phosphatase): did not interact with GST-EL
interaction with PIPKII β [2]: interacted
interaction with PIPKII γ [3]: interacted
